From PMC2628294

What was measured:
[1] = target: soluble human FcγIIIa receptor (human) (UniProt P08637); test: SPR
[2] = target: GlcNAc-containing IgG1-Fc (2) (human); test: SEC
[3] = target: PNGase F deglycosylated IgG1-Fc (human); test: SDS-PAGE under non-reducing conditions
[4] = target: yeast-expressed recombinant human IgG1-Fc (1) (human); test: SDS-PAGE under non-reducing conditions
[5] = target: yeast-expressed recombinant human IgG1-Fc (1) (human); test: SEC

UniProt P08637, sequence (P08637 17-208): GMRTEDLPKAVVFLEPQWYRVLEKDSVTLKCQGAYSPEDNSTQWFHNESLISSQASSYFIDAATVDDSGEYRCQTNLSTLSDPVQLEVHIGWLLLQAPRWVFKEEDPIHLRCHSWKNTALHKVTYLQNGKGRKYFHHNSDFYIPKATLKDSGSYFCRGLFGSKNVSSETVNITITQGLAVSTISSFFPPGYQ

## GlcNAc-containing IgG1-Fc (2) (domain or fragment)
[1]
  fold less active in binding than the Fc glycoform (4): > 17 fold
[2]
  stoichiometry N: 2

## IgG1-Fc glycoform (4), Man3GlcNAc2-IgG1-Fc (domain or fragment)
[1]
  fold more active in binding than the CHO-expressed IgG1-Fc: 2 fold

## IgG1-Fc glycoform (6), Gal2Man3GlcNAc2-IgG1-Fc (domain or fragment)
[1]
  fold more active in binding than the CHO-expressed IgG1-Fc: 1.4 fold

## PNGase F deglycosylated IgG1-Fc (domain or fragment)
[3]
  stoichiometry N: 2

## yeast-expressed recombinant human IgG1-Fc (1) (domain or fragment)
[4]
  stoichiometry N: 2
[5]
  stoichiometry N: 2
